In the supplement of paper PMC10567573:

B1: DCAF4 (parent)
chain: DSHILLCLMGLAETPGCATLLPAS

Variants of: B1
Experiment: protein stability index of a GFP-peptide fusion (GPS, HEK-293T) (PSI 1-6); higher = more stable
Settings: c terminus: a fixed tail appended
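Note: lentivirally expressed fusions sorted by FACS into six bins by GFP to DsRed ratio, PSI derived from sequencing read proportions per bin multiplied by bin number.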

Variant | protein stability index
DIHILLCLMGLAETPGCATLLPAS | 2.04
DKHILLCLMGLAETPGCATLLPAS | 2.03
DLHILLCLMGLAETPGCATLLPAS | 2.63
DMHILLCLMGLAETPGCATLLPAS | 2.31
DNHILLCLMGLAETPGCATLLPAS | 2.39
DPHILLCLMGLAETPGCATLLPAS | 2.04
DQHILLCLMGLAETPGCATLLPAS | 3.81
DRHILLCLMGLAETPGCATLLPAS | 2.46
DTHILLCLMGLAETPGCATLLPAS | 2.09
DVHILLCLMGLAETPGCATLLPAS | 3.74
DWHILLCLMGLAETPGCATLLPAS | 2.68
DSAILLCLMGLAETPGCATLLPAS | 2.76
DSCILLCLMGLAETPGCATLLPAS | 1.61
DSDILLCLMGLAETPGCATLLPAS | 2.49
DSEILLCLMGLAETPGCATLLPAS | 2.27
DSGILLCLMGLAETPGCATLLPAS | 3.24
DSIILLCLMGLAETPGCATLLPAS | 3.85
DSKILLCLMGLAETPGCATLLPAS | 1.81
DSLILLCLMGLAETPGCATLLPAS | 3.05
DSNILLCLMGLAETPGCATLLPAS | 3.2
DSPILLCLMGLAETPGCATLLPAS | 2.65
DSQILLCLMGLAETPGCATLLPAS | 2.02
DSRILLCLMGLAETPGCATLLPAS | 3.45
DSTILLCLMGLAETPGCATLLPAS | 3.73

Variant | protein stability index
DSVILLCLMGLAETPGCATLLPAS | 2.04
DSWILLCLMGLAETPGCATLLPAS | 3.17
DSYILLCLMGLAETPGCATLLPAS | 2.67
DSHALLCLMGLAETPGCATLLPAS | 1.67
DSHCLLCLMGLAETPGCATLLPAS | 2.15
DSHDLLCLMGLAETPGCATLLPAS | 1.92
DSHELLCLMGLAETPGCATLLPAS | 1.99
DSHFLLCLMGLAETPGCATLLPAS | 2.53
DSHGLLCLMGLAETPGCATLLPAS | 2.11
DSHHLLCLMGLAETPGCATLLPAS | 1.64
DSHKLLCLMGLAETPGCATLLPAS | 2.2
DSHLLLCLMGLAETPGCATLLPAS | 2.96
DSHMLLCLMGLAETPGCATLLPAS | 1.86
DSHNLLCLMGLAETPGCATLLPAS | 1.93
DSHPLLCLMGLAETPGCATLLPAS | 1.86
DSHQLLCLMGLAETPGCATLLPAS | 2.13
DSHRLLCLMGLAETPGCATLLPAS | 1.77
DSHSLLCLMGLAETPGCATLLPAS | 1.82
DSHTLLCLMGLAETPGCATLLPAS | 1.93
DSHVLLCLMGLAETPGCATLLPAS | 3.46
DSHWLLCLMGLAETPGCATLLPAS | 2.97
DSHYLLCLMGLAETPGCATLLPAS | 2.33
DSHIALCLMGLAETPGCATLLPAS | 1.77
DSHICLCLMGLAETPGCATLLPAS | 2.07

Variant | protein stability index
DSHIDLCLMGLAETPGCATLLPAS | 2.09
DSHIELCLMGLAETPGCATLLPAS | 1.78
DSHIFLCLMGLAETPGCATLLPAS | 1.59
DSHIGLCLMGLAETPGCATLLPAS | 2.01
DSHIHLCLMGLAETPGCATLLPAS | 1.8
DSHIKLCLMGLAETPGCATLLPAS | 2.12
DSHINLCLMGLAETPGCATLLPAS | 1.73
DSHIPLCLMGLAETPGCATLLPAS | 3.06
DSHIQLCLMGLAETPGCATLLPAS | 2.27
DSHIRLCLMGLAETPGCATLLPAS | 1.44
DSHISLCLMGLAETPGCATLLPAS | 1.78
DSHITLCLMGLAETPGCATLLPAS | 1.65
DSHIVLCLMGLAETPGCATLLPAS | 2.28
DSHIWLCLMGLAETPGCATLLPAS | 2.79
DSHIYLCLMGLAETPGCATLLPAS | 2.77
DSHILACLMGLAETPGCATLLPAS | 1.87
DSHILCCLMGLAETPGCATLLPAS | 3.71
DSHILDCLMGLAETPGCATLLPAS | 2.22
DSHILECLMGLAETPGCATLLPAS | 2.01
DSHILFCLMGLAETPGCATLLPAS | 2.68
DSHILGCLMGLAETPGCATLLPAS | 1.87
DSHILHCLMGLAETPGCATLLPAS | 1.9
DSHILICLMGLAETPGCATLLPAS | 2.56
DSHILKCLMGLAETPGCATLLPAS | 2.19

Variant | protein stability index
DSHILMCLMGLAETPGCATLLPAS | 2.02
DSHILNCLMGLAETPGCATLLPAS | 1.75
DSHILPCLMGLAETPGCATLLPAS | 2.74
DSHILQCLMGLAETPGCATLLPAS | 1.81
DSHILRCLMGLAETPGCATLLPAS | 2.98
DSHILSCLMGLAETPGCATLLPAS | 1.53
DSHILTCLMGLAETPGCATLLPAS | 1.5
DSHILVCLMGLAETPGCATLLPAS | 1.37
DSHILWCLMGLAETPGCATLLPAS | 4.4
DSHILYCLMGLAETPGCATLLPAS | 2.86
DSHILLALMGLAETPGCATLLPAS | 2.67
DSHILLDLMGLAETPGCATLLPAS | 1.78
DSHILLELMGLAETPGCATLLPAS | 1.7
DSHILLFLMGLAETPGCATLLPAS | 2.76
DSHILLGLMGLAETPGCATLLPAS | 2.32
DSHILLHLMGLAETPGCATLLPAS | 2.9
DSHILLILMGLAETPGCATLLPAS | 2.51
DSHILLKLMGLAETPGCATLLPAS | 2.14
DSHILLMLMGLAETPGCATLLPAS | 2.11
DSHILLNLMGLAETPGCATLLPAS | 2.08
DSHILLPLMGLAETPGCATLLPAS | 2.47
DSHILLQLMGLAETPGCATLLPAS | 1.8
DSHILLRLMGLAETPGCATLLPAS | 2.1
DSHILLSLMGLAETPGCATLLPAS | 1.55

Variant | protein stability index
DSHILLVLMGLAETPGCATLLPAS | 2.19
DSHILLWLMGLAETPGCATLLPAS | 3.65
DSHILLYLMGLAETPGCATLLPAS | 3
DSHILLCAMGLAETPGCATLLPAS | 1.96
DSHILLCCMGLAETPGCATLLPAS | 2.39
DSHILLCDMGLAETPGCATLLPAS | 3.14
DSHILLCEMGLAETPGCATLLPAS | 2.36
DSHILLCGMGLAETPGCATLLPAS | 1.93
DSHILLCHMGLAETPGCATLLPAS | 1.51
DSHILLCKMGLAETPGCATLLPAS | 2.02
DSHILLCMMGLAETPGCATLLPAS | 3.25
DSHILLCNMGLAETPGCATLLPAS | 2.58
DSHILLCPMGLAETPGCATLLPAS | 2.5
DSHILLCQMGLAETPGCATLLPAS | 1.95
DSHILLCRMGLAETPGCATLLPAS | 2.62
DSHILLCSMGLAETPGCATLLPAS | 1.69
DSHILLCTMGLAETPGCATLLPAS | 1.97
DSHILLCWMGLAETPGCATLLPAS | 2.07
DSHILLCYMGLAETPGCATLLPAS | 3.55
DSHILLCLAGLAETPGCATLLPAS | 2.83
DSHILLCLCGLAETPGCATLLPAS | 1.71
DSHILLCLDGLAETPGCATLLPAS | 1.92
DSHILLCLEGLAETPGCATLLPAS | 2.02
DSHILLCLGGLAETPGCATLLPAS | 1.7

Variant | protein stability index
DSHILLCLHGLAETPGCATLLPAS | 2.14
DSHILLCLIGLAETPGCATLLPAS | 2.6
DSHILLCLKGLAETPGCATLLPAS | 1.42
DSHILLCLLGLAETPGCATLLPAS | 4.92
DSHILLCLNGLAETPGCATLLPAS | 1.6
DSHILLCLPGLAETPGCATLLPAS | 2.12
DSHILLCLQGLAETPGCATLLPAS | 2.26
DSHILLCLRGLAETPGCATLLPAS | 1.82
DSHILLCLSGLAETPGCATLLPAS | 1.67
DSHILLCLTGLAETPGCATLLPAS | 1.98
DSHILLCLVGLAETPGCATLLPAS | 2.83
DSHILLCLWGLAETPGCATLLPAS | 4.64
DSHILLCLYGLAETPGCATLLPAS | 3.06
DSHILLCLMALAETPGCATLLPAS | 1.84
DSHILLCLMCLAETPGCATLLPAS | 3.17
DSHILLCLMDLAETPGCATLLPAS | 2.89
DSHILLCLMELAETPGCATLLPAS | 1.79
DSHILLCLMFLAETPGCATLLPAS | 2.99
DSHILLCLMHLAETPGCATLLPAS | 3.23
DSHILLCLMILAETPGCATLLPAS | 3.16
DSHILLCLMKLAETPGCATLLPAS | 3.89
DSHILLCLMLLAETPGCATLLPAS | 2.56
DSHILLCLMMLAETPGCATLLPAS | 2.95
DSHILLCLMQLAETPGCATLLPAS | 2.23

Variant | protein stability index
DSHILLCLMSLAETPGCATLLPAS | 3.06
DSHILLCLMTLAETPGCATLLPAS | 3.51
DSHILLCLMYLAETPGCATLLPAS | 2.37
DSHILLCLMGAAETPGCATLLPAS | 2.08
DSHILLCLMGCAETPGCATLLPAS | 2.76
DSHILLCLMGDAETPGCATLLPAS | 1.66
DSHILLCLMGEAETPGCATLLPAS | 1.3
DSHILLCLMGFAETPGCATLLPAS | 2.98
DSHILLCLMGGAETPGCATLLPAS | 1.6
DSHILLCLMGHAETPGCATLLPAS | 2.36
DSHILLCLMGIAETPGCATLLPAS | 1.97
DSHILLCLMGKAETPGCATLLPAS | 1.71
DSHILLCLMGMAETPGCATLLPAS | 2.42
DSHILLCLMGNAETPGCATLLPAS | 1.27
DSHILLCLMGPAETPGCATLLPAS | 2.59
DSHILLCLMGQAETPGCATLLPAS | 1.66
DSHILLCLMGRAETPGCATLLPAS | 2.05
DSHILLCLMGSAETPGCATLLPAS | 1.4
DSHILLCLMGTAETPGCATLLPAS | 2.7
DSHILLCLMGVAETPGCATLLPAS | 2.65
DSHILLCLMGWAETPGCATLLPAS | 1.8
DSHILLCLMGYAETPGCATLLPAS | 3.55
DSHILLCLMGLCETPGCATLLPAS | 2.96
DSHILLCLMGLDETPGCATLLPAS | 2.02

Variant | protein stability index
DSHILLCLMGLEETPGCATLLPAS | 2.25
DSHILLCLMGLFETPGCATLLPAS | 3.3
DSHILLCLMGLHETPGCATLLPAS | 2.59
DSHILLCLMGLIETPGCATLLPAS | 2.11
DSHILLCLMGLKETPGCATLLPAS | 1.92
DSHILLCLMGLLETPGCATLLPAS | 2.76
DSHILLCLMGLMETPGCATLLPAS | 2.66
DSHILLCLMGLNETPGCATLLPAS | 1.69
DSHILLCLMGLPETPGCATLLPAS | 3.88
DSHILLCLMGLQETPGCATLLPAS | 2.74
DSHILLCLMGLRETPGCATLLPAS | 2.39
DSHILLCLMGLSETPGCATLLPAS | 2.37
DSHILLCLMGLWETPGCATLLPAS | 4.01
DSHILLCLMGLYETPGCATLLPAS | 4
DSHILLCLMGLAATPGCATLLPAS | 3.31
DSHILLCLMGLACTPGCATLLPAS | 2.88
DSHILLCLMGLADTPGCATLLPAS | 3.06
DSHILLCLMGLAFTPGCATLLPAS | 2.49
DSHILLCLMGLAGTPGCATLLPAS | 1.88
DSHILLCLMGLAHTPGCATLLPAS | 2.77
